Experiments:
[1] = target: Phos-Sx4-GST (C-terminally GST-tagged Sx4 cytosolic domain harbouring two mutations Y115E and Y251E) (UniProt P70452); assay: ITC; MicroCal VP-ITC; syntaxins (WT-Sx4 298 µM, Phos-Sx4 308.25 µM) titrated with SNAP23 (64 µM); nonlinear least squares fit
[2] = target: WT-Sx4-GST (C-terminally GST-tagged Syntaxin 4 cytosolic domain) (UniProt P70452); assay: as above
[3] = target: m4 + m5 (ternary SNARE complex with His-SNAP23 and GST-VAMP2); assay: in vitro SNARE complex assembly assay (SDS-PAGE, anti-Sx4 immunoblot, ImageJ quantification); settings: 5 µM Sx4-GST variant with equimolar GST-VAMP2 and His-SNAP23, 4 °C, 20 min; parent: est. 1.0; read off a plot

| Kd [1] | Kd [2] | ratio to parent [3] | Substance |
| --- | --- | --- | --- |
| 1.22 µM | 5.6 µM | – | His-SNAP23 (N-terminally His-tagged SNAP23) (from UniProt O09044 1-210) (natural protein) |
| – | – | 1.5 | WT-Sx4-GST (C-terminally GST-tagged Syntaxin 4 cytosolic domain) (from UniProt P70452) L173A; E174A |

Source: PMC10741561
